Five molecules from patent US20260250352A1 (ALPINE IMMUNE SCIENCES, published 2026) can be followed below.

Several values for one entry are separate records, joined by “and”; a condition that tells them apart may be missing. Identical values can stand only once. Like-named read-outs stand apart in the source and are kept apart here.

Assay [1] has as its target T1, recombinant mouse APRIL (mouse, UniProt Q9D777 96-241, limits assumed).
T1 sequence (looked up): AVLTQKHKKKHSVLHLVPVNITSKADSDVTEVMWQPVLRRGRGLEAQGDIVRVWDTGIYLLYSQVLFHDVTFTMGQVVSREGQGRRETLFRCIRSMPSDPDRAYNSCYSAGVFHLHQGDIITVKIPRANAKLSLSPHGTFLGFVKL
Description: cell-based or functional assay.

The target of assay [2] is T2, recombinant human BAFF (human, UniProt Q9Y275 134-285). Description: cell-based or functional assay.
Assay [3] concerns the target T3, recombinant human APRIL (human, UniProt O75888 105-250, limits assumed).
T3 sequence (looked up): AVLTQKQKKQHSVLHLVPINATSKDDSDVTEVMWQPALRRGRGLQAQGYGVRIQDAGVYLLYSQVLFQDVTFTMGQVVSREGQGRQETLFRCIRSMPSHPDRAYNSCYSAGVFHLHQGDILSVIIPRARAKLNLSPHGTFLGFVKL
Nature of the assay: cell-based or functional assay.

Assay [4] addresses T4, recombinant mouse BAFF (mouse, UniProt Q9WU72 127-309). Description: cell-based or functional assay.
The target in assay [5] is T2, recombinant human BAFF. Description: cell-based or functional assay. The source holds these as a separate data set.
Assay [6] addresses T2, recombinant human BAFF. Description: cell-based or functional assay. The source holds these as a separate data set.
The target of assay [7] is T3, recombinant human APRIL. Description: cell-based or functional assay. This is another data set of the same source.
In assay [8] the target is T2, recombinant human BAFF. Nature of the assay: cell-based or functional assay. The source holds these as a separate data set.
Assay [9] concerns the target T3, recombinant human APRIL. Description: cell-based or functional assay. This is another data set of the same source.
Assay [10] has as its target T2, recombinant human BAFF. Description: SPR.
Assay [11] has as its target T2, recombinant human BAFF. Description: cell-based or functional assay. The source holds these as a separate data set.
Assay [12] deals with T3, recombinant human APRIL. Description: SPR, apparent (ka app); apparent (ka app). In general terms: Surface plasmon resonance follows binding to a sensor surface in real time, without labels.
Assay [13] concerns the target T2, recombinant human BAFF. Description: cell-based or functional assay. The source holds these as a separate data set.
Assay [14] has as its target T3, recombinant human APRIL. Nature of the assay: cell-based or functional assay. This is another data set of the same source.
Assay [15] deals with T4, recombinant mouse BAFF. Description: cell-based or functional assay. This is another data set of the same source.
Assay [16] deals with T3, recombinant human APRIL. Nature of the assay: SPR, apparent (kd app).
The target of assay [17] is T2, recombinant human BAFF. Description: cell-based or functional assay. The source holds these as a separate data set.
Assay [18] addresses T3, recombinant human APRIL. Description: cell-based or functional assay. The source holds these as a separate data set.
Assay [19] has as its target T2, recombinant human BAFF. Nature of the assay: SPR. This is another data set of the same source.
Assay [20] deals with T3, recombinant human APRIL. Nature of the assay: SPR, apparent (KD app).
The target of assay [21] is T2, recombinant human BAFF. Description: cell-based or functional assay. The source holds these as a separate data set.
The target of assay [22] is T3, recombinant human APRIL. Description: cell-based or functional assay. This is another data set of the same source.
In assay [23] the target is single chain BAFF-APRIL-APRIL heterotrimer (BAA) (human, UniProt Q9Y275 140-285; O75888 111-250; O75888 111-250, limits assumed). Nature of the assay: cell-based or functional assay.
In assay [24] the target is single chain BAFF homotrimer (BAFF-BAFF-BAFF) (human, UniProt Q9Y275 140-285, limits assumed). Description: cell-based or functional assay.
The next assay has as its target BAFF 60-mer (human, UniProt Q9Y275 134-285, limits assumed). Nature of the assay: cell-based or functional assay.
Assay [25] concerns the target single chain APRIL-BAFF-BAFF heterotrimer (ABB) (human, UniProt O75888 111-250; Q9Y275 140-285; Q9Y275 140-285, limits assumed). Description: cell-based or functional assay.
In the next assay the target is cynomolgus monkey APRIL (cynomolgus monkey). Description: cell-based or functional assay.
Assay [26] has as its target T1, recombinant mouse APRIL. Description: cell-based or functional assay. This is another data set of the same source.
Assay [27] deals with T2, recombinant human BAFF. Description: cell-based or functional assay. This is another data set of the same source.
The target in assay [28] is T3, recombinant human APRIL. Nature of the assay: cell-based or functional assay. The source holds these as a separate data set.
Another assay addresses rat BAFF (rat). Nature of the assay: cell-based or functional assay.
A further assay deals with rat APRIL (rat). Nature of the assay: cell-based or functional assay.
The target of assay [29] is T4, recombinant mouse BAFF. Nature of the assay: cell-based or functional assay. This is another data set of the same source.
Another assay concerns the target cynomolgus monkey BAFF (cynomolgus monkey, UniProt A0A2K5V2X4 134-285). Nature of the assay: cell-based or functional assay.
The target of assay [30] is T2, recombinant human BAFF. Nature of the assay: cell-based or functional assay. The source holds these as a separate data set.
Assay [31] concerns the target T3, recombinant human APRIL. Nature of the assay: cell-based or functional assay. The source holds these as a separate data set.

T4 sequence (Q9WU72 127-309 limits assumed): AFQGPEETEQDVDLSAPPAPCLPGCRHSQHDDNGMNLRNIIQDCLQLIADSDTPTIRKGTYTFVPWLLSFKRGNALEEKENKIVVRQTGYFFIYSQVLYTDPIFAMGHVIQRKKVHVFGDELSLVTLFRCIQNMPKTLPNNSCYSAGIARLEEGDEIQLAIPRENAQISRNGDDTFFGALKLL

B1: 26 TACI CRD2-Fc (Fc fusion)
chain: SLSCRKEQGEYYDHLLRDCISCASICGQHPKQCADFCENKLRSGSGGGGSEPKSSDKTHTCPPCPAPEAEGAPSVFLFPPKPKDTLMISRTPEVTCVVVDVSHEDPEVKFNWYVDGVEVHNAKTKPREEQYNSTYRVVSVLTVLHQDWLNGKEYKCKVSNKALPAPIEKTISKAKGQPREPQVYTLPPSRDELTKNQVSLTCLVKGFYPSDIAVEWESNGQPENNYKTTPPVLDSDGSFFLYSKLTVDKSRWQQGNVFSCSVMHEALHNHYTQKSLSLSPG
notes: also called TACI (26)-Fc_73; 26 TACI-Fc
One may read the kon as the second-order rate constant of association. For orientation: koff means the rate constant with which the complex falls apart. With B1, the “IC50, TACI/Jurkat/NF-kB reporter” value with recombinant mouse APRIL [1] was 0.9 nM; with recombinant human BAFF [2] it was 1.4 nM; in the assay with recombinant human APRIL [3], 3.8 nM; with recombinant mouse BAFF [4], 1 nM; in assay [23] it was below 0.016 nM; in assay [24], 3.36 nM. The results for the “IC50, TACI/Jurkat/NF-kB reporter” value (in the assay with BAFF 60-mer; in assay [25]) were 14.7 nM and 0.103 nM, respectively. For the same molecule, the “IC50 (read off the curve), human BAFF, NF-κB luciferase reporter, Jurkat/NF-κB/TACI cells” value with recombinant human BAFF [5] was around 1 nM. Moreover, the “IC50, Jurkat/NF-kB/TACI reporter” value worked out at 1270 nM in the assay with recombinant human BAFF [6]; 214 nM with recombinant human APRIL [7]; 1.34 nM in the assay with recombinant human BAFF [8]; 1.76 nM in the assay with recombinant human APRIL [9]; 1220 nM with recombinant human BAFF [13]; 179 nM in the assay with recombinant human APRIL [14]. In addition, the “IC50, Jurkat/NF-kB/TACI reporter” value came out at 1.55 nM in the assay with recombinant human BAFF [17]; 9.21 nM in the assay with recombinant human APRIL [18]; 3.3 nM in the assay with cynomolgus monkey APRIL; 24.5 nM with recombinant mouse APRIL [26]; 2.8 nM with recombinant human BAFF [27]; 3.4 nM with recombinant human APRIL [28]. The “IC50, Jurkat/NF-kB/TACI reporter” value in the assay with rat BAFF came out at 3.8 nM; with rat APRIL it was 22.7 nM; in the assay with recombinant mouse BAFF [29] it was 15.2 nM; with cynomolgus monkey BAFF, 1.9 nM. For the same molecule, the “IC50 relative to TACI 30-110” value with recombinant human BAFF [6] came to 0.28 ratio; with recombinant human APRIL [7], 0.05 ratio. The “fold better affinity than telitacicept” value with recombinant human BAFF [10] is around 8 fold. For the same molecule, in the assay with recombinant human BAFF [11], the “IC50 (read off the curve), human BAFF, NF-κB luciferase reporter, TACI/Jurkat/NF-κB cells” value lay in the range of 1 to 2 nM. For the same molecule, the on-rate constant (kon) stood at 7e+09 M⁻¹ s⁻¹ with recombinant human APRIL [12] and 619000 M⁻¹ s⁻¹ with recombinant human BAFF [19]. The “IC50 relative to TACI 30-110-Fc” value with recombinant human BAFF [13] stood at 0.21 ratio; in the assay with recombinant human APRIL [14], 0.05 ratio. Also, the “IC50 (read off the curve), mouse BAFF, NF-κB luciferase reporter, Jurkat/NF-κB/TACI cells” value with recombinant mouse BAFF [15] was around 1 nM. Further, the koff came to 0.007 s⁻¹ with recombinant human APRIL [16] and 3.67e-05 s⁻¹ in the assay with recombinant human BAFF [19]. For the same molecule, the “IC50 relative to WT TACI (68-110)-Fc (Δ WT)” value with recombinant human BAFF [17] was 0.84 ratio; with recombinant human APRIL [18], 0.75 ratio. The Kd is 0.0593 nM with recombinant human BAFF [19] and 0.001 nM with recombinant human APRIL [20]. Besides, the “fold better neutralization than belimumab” value with recombinant human BAFF [21] was 3.4 fold. For the same molecule, in the assay with recombinant human APRIL [22], the “fold better neutralization than the anti-APRIL mAb” value was 5.7 fold.

B2: Belimumab (antibody, V domains shown)
VH: QVQLQQSGAEVKKPGSSVRVSCKASGGTFNNNAINWVRQAPGQGLEWMGGIIPMFGTAKYSQNFQGRVAITADESTGTASMELSSLRSEDTAVYYCARSRDLLLFPHHALSPWGRGTMVTVSS
VL: SSELTQDPAVSVALGQTVRVTCQGDSLRSYYASWYQQKPGQAPVLVIYGKNNRPSGIPDRFSGSSSGNTASLTITGAQAEDEADYYCSSRDSSGNHWVFGGGTELTVLG
As to B2, the results for the “IC50, TACI/Jurkat/NF-kB reporter” value (with recombinant human BAFF [2]; in assay [24]; in assay [25]) were 4.8 nM, 8.52 nM and 0.09 nM, respectively. The “IC50, Jurkat/NF-kB/TACI reporter” value with recombinant human BAFF [8] was found to be 2.26 nM; with recombinant human BAFF [13], 2500 nM; with recombinant human BAFF [17], 2.19 nM. The “IC50 relative to TACI 30-110-Fc” value with recombinant human BAFF [13] came out at 0.43 ratio. In addition, the “IC50 relative to WT TACI (68-110)-Fc (Δ WT)” value with recombinant human BAFF [17] came to 1.18 ratio.

B3: 7 TACI CRD1/CRD2-Fc (Fc fusion)
variant TACI CRD1/CRD2 - linker - Fc chain: VAMRSCPEEQYWDPLLGTCMSCKTICNHQSQRTCAAFCRSLSCRKEQGKFYDHLLRDCISCASICGQHPKQCDYFCENKLRSGSGGGGSEPKSSDKTHTCPPCPAPEAEGAPSVFLFPPKPKDTLMISRTPEVTCVVVDVSHEDPEVKFNWYVDGVEVHNAKTKPREEQYNSTYRVVSVLTVLHQDWLNGKEYKCKVSNKALPAPIEKTISKAKGQPREPQVYTLPPSRDELTKNQVSLTCLVKGFYPSDIAVEWESNGQPENNYKTTPPVLDSDGSFFLYSKLTVDKSRWQQGNVFSCSVMHEALHNHYTQKSLSLSPG
Regarding B3, the “IC50 (read off the curve), human BAFF, NF-κB luciferase reporter, Jurkat/TACI/NF-κB cells” value with recombinant human BAFF [30] is around 2 nM. Further, the “IC50 (read off the curve), human APRIL, NF-κB luciferase reporter, Jurkat/TACI/NF-κB cells” value in the assay with recombinant human APRIL [31] is around 3 nM.

B4: Telitacicept (Fc fusion)
chain: SRVDQEERFPQGLWTGVAMRSCPEEQYWDPLLGTCMSCKTICNHQSQRTCAAFCRSLSCRKEQGKFYDHLLRDCISCASICGQHPKQCAYFCENKLRSPVNLPPEL
modifications: The drug is a disulfide-linked Fc-fusion homodimer. Only one TACI ECD arm is given, and the Fc is left out.
notes: Commercial product (sourced through Clinigen; RemeGen); also called Telitacicept/Tai'ai (RemeGen); WT TACI-Fc (Telitacicept); not shown: Fc part of the commercial drug (Clinigen/RemeGen)
As to B4, the “IC50, TACI/Jurkat/NF-kB reporter” value is 15.5 nM in the assay with recombinant mouse APRIL [1]; 14.5 nM with recombinant human BAFF [2]; 53.9 nM with recombinant human APRIL [3]; 7.9 nM with recombinant mouse BAFF [4]; 0.173 nM in assay [23]; 30.8 nM in [24]. In addition, the “IC50, TACI/Jurkat/NF-kB reporter” value in the assay with BAFF 60-mer was above 100 nM; in assay [25] it was 0.408 nM. In addition, the “IC50, Jurkat/NF-kB/TACI reporter” value is 6.85 nM in the assay with recombinant human BAFF [8]; 17.2 nM in the assay with recombinant human APRIL [9]; 9.17 nM and 7.3 nM in the assay with recombinant human BAFF [17]. Besides, in the assay with recombinant human BAFF [19], the Kd amounted to 0.491 nM. For the same molecule, the koff in the assay with recombinant human BAFF [19] came out at 8.63e-05 s⁻¹. The kon with recombinant human BAFF [19] came out at 175000 M⁻¹ s⁻¹.

B5: WT TACI 13-118-Fc based on the published telitacicept sequence (Fc fusion)
chain: B4 chain
For B5, the “IC50, TACI/Jurkat/NF-kB reporter” value with recombinant mouse APRIL [1] worked out at 14.3 nM; with recombinant human BAFF [2], 19.6 nM; with recombinant human APRIL [3] it was 73.1 nM; with recombinant mouse BAFF [4], 9.4 nM.
